{"source": "patent US20040058366", "about": "“Novel clock gene bmal2” (published 2004)", "binders": {"B1": {"name": "cPer2 E-box probe (dsDNA)", "DNA 1": "GTGTCACACGTGAGGCTTA", "DNA 2": "TAAGCCTCACGTGTGACAC"}}, "key": {"cBMAL2": {"biological_target": "T1, cBMAL2 (Gallus gallus, UniProt Q8QGQ7 SEQ:1-622)", "T1 sequence": "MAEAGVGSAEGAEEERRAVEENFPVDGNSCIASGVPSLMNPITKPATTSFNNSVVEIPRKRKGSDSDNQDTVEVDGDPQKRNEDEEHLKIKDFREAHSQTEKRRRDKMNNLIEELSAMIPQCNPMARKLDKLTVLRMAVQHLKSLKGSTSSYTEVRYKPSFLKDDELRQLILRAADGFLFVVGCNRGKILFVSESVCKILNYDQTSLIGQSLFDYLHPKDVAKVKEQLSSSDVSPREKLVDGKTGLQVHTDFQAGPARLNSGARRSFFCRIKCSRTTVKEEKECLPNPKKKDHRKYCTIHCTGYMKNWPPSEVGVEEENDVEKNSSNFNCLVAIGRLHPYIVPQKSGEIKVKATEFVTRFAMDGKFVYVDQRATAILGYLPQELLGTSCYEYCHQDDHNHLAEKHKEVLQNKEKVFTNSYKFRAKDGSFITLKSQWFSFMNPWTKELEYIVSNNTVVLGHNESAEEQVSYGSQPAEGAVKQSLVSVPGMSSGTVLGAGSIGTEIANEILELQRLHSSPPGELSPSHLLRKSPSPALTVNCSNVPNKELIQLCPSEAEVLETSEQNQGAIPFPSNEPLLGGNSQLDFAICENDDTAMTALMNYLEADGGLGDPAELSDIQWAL", "assay": "EMSA; no specific band with cBMAL2 alone", "conditions": "label: 32P; within a 39 bp EcoRI fragment excised from pCR2.1", "from_the_text": "(§1) For preparation of the probe, oligonucleotides [cP2E1-S: 5′-GTGTCACACGTGAGGCTTA-3′ (Seq. ID No. 59) and cP2E1-AS: 5′-TAAGCCTCACGTGTGACAC-3′ (Seq. ID No. 60)] were synthesized that correspond to the E-box sequence and its flanking sequences within a putative promoter/enhancer region of cPer2 gene. These oligonucleotides synthesized were annealed together and subcloned into a pCR2.1 vector using TOPO-TA cloning kit (Invitrogen, Calif.), from which a 39 bp fragment was excised with a restriction enzyme EcoRI and used. The above-mentioned cBMAL1, cBMAL2 and cCLOCK were prepared by being transcribed and translated in vitro from an expression plasmid containing the cDNA of cBmal1, cBmal2 or cClock with the aid of TNT-T7 Quick Coupled Transcription/Translation System (Promega). […]\n(§2) 5 μL each of the protein mixtures thus obtained (BMAL1+BMAL2, BMAL1+CLOCK, BMAL2+CLOCK) was added with 32 μL of buffer [25 mM Hepes-KOH (pH 7.6), 100 mM KCl, 0.1 mM EDTA, 10% (v/v) glycerol, 7.5 mM MgCl₂, 1 mM DTT and 1 μg denatured salmon sperm DNA] containing a ³²P-labeled probe (33 fmoles, 1.3×10⁵ cpm) andwas incubated for 20 min at 23° C. After the incubation, each mixture was separated by a 6% polyacrylamide gel electrophoresis and analyzed similarly as in Example 7 using a FLA2000 bioimage analyzer (FUJI PHOTO FILM). […]"}, "cCLOCK": {"biological_target": "T2, cCLOCK (Gallus gallus, UniProt Q8QGQ6 Q8QGQ6:1-875)", "T2 sequence": "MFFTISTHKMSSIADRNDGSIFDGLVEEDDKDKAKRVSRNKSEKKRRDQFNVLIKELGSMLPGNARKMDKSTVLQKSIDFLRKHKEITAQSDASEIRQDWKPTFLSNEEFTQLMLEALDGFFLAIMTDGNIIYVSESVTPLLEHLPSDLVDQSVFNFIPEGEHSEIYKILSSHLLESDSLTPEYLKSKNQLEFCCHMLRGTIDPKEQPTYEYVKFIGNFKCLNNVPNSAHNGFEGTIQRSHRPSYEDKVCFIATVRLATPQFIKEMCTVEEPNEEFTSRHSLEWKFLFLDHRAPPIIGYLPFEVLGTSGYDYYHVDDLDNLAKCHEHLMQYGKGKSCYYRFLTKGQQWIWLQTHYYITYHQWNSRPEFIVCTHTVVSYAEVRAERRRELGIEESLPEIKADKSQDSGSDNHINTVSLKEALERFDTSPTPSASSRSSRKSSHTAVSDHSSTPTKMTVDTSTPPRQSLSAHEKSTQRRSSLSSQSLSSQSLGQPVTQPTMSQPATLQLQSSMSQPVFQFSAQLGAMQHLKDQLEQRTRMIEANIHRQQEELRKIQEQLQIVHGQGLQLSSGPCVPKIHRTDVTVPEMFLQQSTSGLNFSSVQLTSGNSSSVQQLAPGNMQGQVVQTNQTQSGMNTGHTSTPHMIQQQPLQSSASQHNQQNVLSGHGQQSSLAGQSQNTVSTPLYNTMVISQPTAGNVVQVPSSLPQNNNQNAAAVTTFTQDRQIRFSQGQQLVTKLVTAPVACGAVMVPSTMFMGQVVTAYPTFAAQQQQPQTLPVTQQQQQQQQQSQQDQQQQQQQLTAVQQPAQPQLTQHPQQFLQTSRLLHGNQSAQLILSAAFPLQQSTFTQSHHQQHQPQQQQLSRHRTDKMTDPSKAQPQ", "assay": "EMSA; no specific band with cCLOCK alone", "conditions": "label: 32P; within a 39 bp EcoRI fragment excised from pCR2.1", "from_the_text": "as §1, §2"}, "cBMAL1": {"biological_target": "cBMAL1 (Gallus gallus, UniProt Q9I8T7 Q9I8T7:1-633)", "sequence (Q9I8T7 whole entry, the tested form may be a part, one chain of several)": "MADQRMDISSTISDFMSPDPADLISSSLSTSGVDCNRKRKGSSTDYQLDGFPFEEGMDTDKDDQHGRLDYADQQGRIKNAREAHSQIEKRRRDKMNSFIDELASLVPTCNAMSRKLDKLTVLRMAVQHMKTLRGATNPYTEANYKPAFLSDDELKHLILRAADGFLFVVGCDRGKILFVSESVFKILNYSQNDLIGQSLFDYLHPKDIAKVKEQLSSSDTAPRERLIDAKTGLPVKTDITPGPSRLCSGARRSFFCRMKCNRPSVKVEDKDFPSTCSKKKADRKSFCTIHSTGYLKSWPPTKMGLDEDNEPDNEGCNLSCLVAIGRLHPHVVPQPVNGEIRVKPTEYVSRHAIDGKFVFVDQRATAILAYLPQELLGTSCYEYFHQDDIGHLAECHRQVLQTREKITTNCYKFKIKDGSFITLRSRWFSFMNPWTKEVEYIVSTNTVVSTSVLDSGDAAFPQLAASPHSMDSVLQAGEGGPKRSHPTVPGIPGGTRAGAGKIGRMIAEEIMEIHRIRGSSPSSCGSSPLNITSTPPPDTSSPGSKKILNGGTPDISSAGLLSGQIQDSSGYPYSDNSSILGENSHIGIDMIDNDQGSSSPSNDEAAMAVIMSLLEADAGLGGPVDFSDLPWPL", "assay": "EMSA; no specific band with cBMAL1 alone", "conditions": "label: 32P; within a 39 bp EcoRI fragment excised from pCR2.1", "from_the_text": "as §1, §2"}, "[1]": {"biological_target": "cBMAL1-cCLOCK heterodimer (Gallus gallus, UniProt Q9I8T7;Q8QGQ6 Q9I8T7:1-633,Q8QGQ6:1-875)", "sequence (Q9I8T7 whole entry, the tested form may be a part, one chain of several)": "as above", "assay": "EMSA; two or three specific complexes; 7.5 mM MgCl2, 100 mM KCl, pH 7.6, 23 C", "conditions": "tags: TNT-T7 coupled transcription/translation; label: 32P; within a 39 bp EcoRI fragment excised from pCR2.1", "from_the_text": "as §1, §2"}, "[2]": {"biological_target": "T3, cBMAL2-cCLOCK heterodimer (Gallus gallus, UniProt Q8QGQ7;Q8QGQ6 Q8QGQ7:1-622,Q8QGQ6:1-875)", "T3 sequence 1": "T1 sequence", "T3 sequence 2": "T2 sequence", "assay": "EMSA; two or three specific complexes; 7.5 mM MgCl2, 100 mM KCl, pH 7.6, 23 C", "conditions": "tags: TNT-T7 coupled transcription/translation; label: 32P; within a 39 bp EcoRI fragment excised from pCR2.1", "from_the_text": "as §1, §2"}}, "data": [{"binder": "B1", "values": [{"measurement": "binding result", "setting": "cBMAL2", "value": "no binding"}, {"measurement": "binding result", "setting": "cCLOCK", "value": "no binding"}, {"measurement": "binding result", "setting": "cBMAL1", "value": "no binding"}, {"measurement": "binding result", "setting": "[1]", "value": "binds"}, {"measurement": "binding result", "setting": "[2]", "value": "binds"}]}]}
